Laboratory results published in patent publication US5994105.

Biological target: commercially available renin (SIGMA)
Conditions: scale: % remaining renin activities

Remaining renin activities (%): 48
Substance: rat acylglucosamine 2-epimerase obtained in example 4 (from UniProt P51607) (enzyme)
